# Reference: US20250171562A1 (ALK ABELL, published 2025)
# Target: T1, recombinant human IgE (human, UniProt P01854-1 1-428)
# T1 construct: made in-house (ALK); preloaded on immobilised FcεRIα in the displacement ELISA
# Experiment: IgE-FcεRIα displacement ELISA
# Method in brief: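 Streptavidin-coated plates carried site-specifically biotinylated recombinant human FcεRIα, loaded with recombinant human IgE at 13 ng/ml. sdAbs in a pM–μM series were added for 1 h, and displaced IgE was washed off. Percent displacement was the signal reduction versus the no-sdAb control, giving EC50 and maximal effect.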
# T1 sequence (P01854 other isoform, or with tags, fused parts or gaps): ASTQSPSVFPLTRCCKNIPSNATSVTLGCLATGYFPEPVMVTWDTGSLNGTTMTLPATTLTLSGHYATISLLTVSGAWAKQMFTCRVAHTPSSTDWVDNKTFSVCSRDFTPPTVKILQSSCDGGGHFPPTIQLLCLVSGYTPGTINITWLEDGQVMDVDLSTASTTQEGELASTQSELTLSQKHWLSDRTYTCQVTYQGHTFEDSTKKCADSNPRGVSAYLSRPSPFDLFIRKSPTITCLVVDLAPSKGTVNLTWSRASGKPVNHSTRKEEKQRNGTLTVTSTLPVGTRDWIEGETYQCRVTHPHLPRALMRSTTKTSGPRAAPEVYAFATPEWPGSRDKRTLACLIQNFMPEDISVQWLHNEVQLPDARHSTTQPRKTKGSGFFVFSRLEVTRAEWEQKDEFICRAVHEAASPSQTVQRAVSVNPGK
Binder,Max effect [%],EC50 [µM]
CIgG4F2A1(RS) (Fc fusion) chain 1: GPPCPPCPAPEFLGGPSVFLFPPKPKDTLMISRTPEVTCVVVDVSQEDPEVQFNWYVDGVEVHNAKTKPREEQFNSTYRVVSVLTVLHQDWLNGKEYKCKVSNKGLPSSIEKTISKAKGQPREPQVYTLPPCQEEMTKNQVSLWCLVKGFYPSDIAVEWESNGQPENNYKTTPPVLDSDGSFFLYSRLTVDKSRWQEGNVFSCSVMHEALHNHYTQKSLSLSLGKRSDVQLQESGGGLVQAGGSLKLSCAASGGSLSRYDMGWFRQAPGKEREFVARISWSGDTKYYADAVEGRFAISRDNAQNTVYLQMNSLKPEDTAVYYCAVALYGNRGYYDVNTYSYWGQGTRVTVS chain 2: GPPCPPCPAPEFLGGPSVFLFPPKPKDTLMISRTPEVTCVVVDVSQEDPEVQFNWYVDGVEVHNAKTKPREEQFNSTYRVVSVLTVLHQDWLNGKEYKCKVSNKGLPSSIEKTISKAKGQPREPQVCTLPPSQEEMTKNQVSLSCAVKGFYPSDIAVEWESNGQPENNYKTTPPVLDSDGSFFLVSRLTVDKSRWQEGNVFSCSVMHEALHNHYTQKSLSLSLGKRSEVQLLESGGGLVQPGGSLRLSCAASGFTFGNYDMAWVRQAPGKRPEWVSSIDTGGDITHYADSVKGRFTISRDNAKNTLYLQMNSLRPEDTAVYWCATDEEYALGPNEFDYYGQGTLVTVSS,10,–
CIgG4F3A1(RS) (Fc fusion) chain 1: GPPCPPCPAPEFLGGPSVFLFPPKPKDTLMISRTPEVTCVVVDVSQEDPEVQFNWYVDGVEVHNAKTKPREEQFNSTYRVVSVLTVLHQDWLNGKEYKCKVSNKGLPSSIEKTISKAKGQPREPQVYTLPPCQEEMTKNQVSLWCLVKGFYPSDIAVEWESNGQPENNYKTTPPVLDSDGSFFLYSRLTVDKSRWQEGNVFSCSVMHEALHNHYTQKSLSLSLGKRSDVQLQESGGGLVQAGGSLKLSCAASRGSLSRWDVAWFRQAPGKERSFVTRISWSGTTSYYADAVKGRFAISRDNAKNTVYLQMNSLKPEDTAVYYCAVALYGNRGYYDVNAHSYWGQGTQVTVS chain 2: GPPCPPCPAPEFLGGPSVFLFPPKPKDTLMISRTPEVTCVVVDVSQEDPEVQFNWYVDGVEVHNAKTKPREEQFNSTYRVVSVLTVLHQDWLNGKEYKCKVSNKGLPSSIEKTISKAKGQPREPQVCTLPPSQEEMTKNQVSLSCAVKGFYPSDIAVEWESNGQPENNYKTTPPVLDSDGSFFLVSRLTVDKSRWQEGNVFSCSVMHEALHNHYTQKSLSLSLGKRSEVQLLESGGGLVQPGGSLRLSCAASGFTFGNYDMAWVRQAPGKRPEWVSSIDTGGDITHYADSVKGRFTISRDNAKNTLYLQMNSLRPEDTAVYWCATDEEYALGPNEFDYYGQGTLVTVSS,30,–
CIgG4F1A1(G4S)3 (Fc fusion) chain 1: GPPCPPCPAPEFLGGPSVFLFPPKPKDTLMISRTPEVTCVVVDVSQEDPEVQFNWYVDGVEVHNAKTKPREEQFNSTYRVVSVLTVLHQDWLNGKEYKCKVSNKGLPSSIEKTISKAKGQPREPQVYTLPPCQEEMTKNQVSLWCLVKGFYPSDIAVEWESNGQPENNYKTTPPVLDSDGSFFLYSRLTVDKSRWQEGNVFSCSVMHEALHNHYTQKSLSLSLGKGGGGSGGGGSGGGGSDVQLQESGGGLVQAGGSLKLSCAASGGSLSRYDMGWFRQAPGKEREFVARISWSGTTKYYADAVKGRFAISRDNAKNTVYLQMNSLKPEDTAVYYCAAAFYGNRGYYDVNAYTSSGQGTQVTVS chain 2: GPPCPPCPAPEFLGGPSVFLFPPKPKDTLMISRTPEVTCVVVDVSQEDPEVQFNWYVDGVEVHNAKTKPREEQFNSTYRVVSVLTVLHQDWLNGKEYKCKVSNKGLPSSIEKTISKAKGQPREPQVCTLPPSQEEMTKNQVSLSCAVKGFYPSDIAVEWESNGQPENNYKTTPPVLDSDGSFFLVSRLTVDKSRWQEGNVFSCSVMHEALHNHYTQKSLSLSLGKGGGGSGGGGSGGGGSEVQLLESGGGLVQPGGSLRLSCAASGFTFGNYDMAWVRQAPGKRPEWVSSIDTGGDITHYADSVKGRFTISRDNAKNTLYLQMNSLRPEDTAVYWCATDEEYALGPNEFDYYGQGTLVTVSS,65,0.48
CIgG4F2A1(G4S)3 (Fc fusion) chain 1: GPPCPPCPAPEFLGGPSVFLFPPKPKDTLMISRTPEVTCVVVDVSQEDPEVQFNWYVDGVEVHNAKTKPREEQFNSTYRVVSVLTVLHQDWLNGKEYKCKVSNKGLPSSIEKTISKAKGQPREPQVYTLPPCQEEMTKNQVSLWCLVKGFYPSDIAVEWESNGQPENNYKTTPPVLDSDGSFFLYSRLTVDKSRWQEGNVFSCSVMHEALHNHYTQKSLSLSLGKGGGGSGGGGSGGGGSDVQLQESGGGLVQAGGSLKLSCAASGGSLSRYDMGWFRQAPGKEREFVARISWSGDTKYYADAVEGRFAISRDNAQNTVYLQMNSLKPEDTAVYYCAVALYGNRGYYDVNTYSYWGQGTRVTVS chain 2: GPPCPPCPAPEFLGGPSVFLFPPKPKDTLMISRTPEVTCVVVDVSQEDPEVQFNWYVDGVEVHNAKTKPREEQFNSTYRVVSVLTVLHQDWLNGKEYKCKVSNKGLPSSIEKTISKAKGQPREPQVCTLPPSQEEMTKNQVSLSCAVKGFYPSDIAVEWESNGQPENNYKTTPPVLDSDGSFFLVSRLTVDKSRWQEGNVFSCSVMHEALHNHYTQKSLSLSLGKGGGGSGGGGSGGGGSEVQLLESGGGLVQPGGSLRLSCAASGFTFGNYDMAWVRQAPGKRPEWVSSIDTGGDITHYADSVKGRFTISRDNAKNTLYLQMNSLRPEDTAVYWCATDEEYALGPNEFDYYGQGTLVTVSS,45,–
CIgG4F1A1(G4S)2 (Fc fusion) chain 1: GPPCPPCPAPEFLGGPSVFLFPPKPKDTLMISRTPEVTCVVVDVSQEDPEVQFNWYVDGVEVHNAKTKPREEQFNSTYRVVSVLTVLHQDWLNGKEYKCKVSNKGLPSSIEKTISKAKGQPREPQVYTLPPCQEEMTKNQVSLWCLVKGFYPSDIAVEWESNGQPENNYKTTPPVLDSDGSFFLYSRLTVDKSRWQEGNVFSCSVMHEALHNHYTQKSLSLSLGKGGGGSGGGGSDVQLQESGGGLVQAGGSLKLSCAASGGSLSRYDMGWFRQAPGKEREFVARISWSGTTKYYADAVKGRFAISRDNAKNTVYLQMNSLKPEDTAVYYCAAAFYGNRGYYDVNAYTSSGQGTQVTVS chain 2: GPPCPPCPAPEFLGGPSVFLFPPKPKDTLMISRTPEVTCVVVDVSQEDPEVQFNWYVDGVEVHNAKTKPREEQFNSTYRVVSVLTVLHQDWLNGKEYKCKVSNKGLPSSIEKTISKAKGQPREPQVCTLPPSQEEMTKNQVSLSCAVKGFYPSDIAVEWESNGQPENNYKTTPPVLDSDGSFFLVSRLTVDKSRWQEGNVFSCSVMHEALHNHYTQKSLSLSLGKGGGGSGGGGSEVQLLESGGGLVQPGGSLRLSCAASGFTFGNYDMAWVRQAPGKRPEWVSSIDTGGDITHYADSVKGRFTISRDNAKNTLYLQMNSLRPEDTAVYWCATDEEYALGPNEFDYYGQGTLVTVSS,55,0.8
CIgG4F2A1(G4S)2 (Fc fusion) chain 1: GPPCPPCPAPEFLGGPSVFLFPPKPKDTLMISRTPEVTCVVVDVSQEDPEVQFNWYVDGVEVHNAKTKPREEQFNSTYRVVSVLTVLHQDWLNGKEYKCKVSNKGLPSSIEKTISKAKGQPREPQVYTLPPCQEEMTKNQVSLWCLVKGFYPSDIAVEWESNGQPENNYKTTPPVLDSDGSFFLYSRLTVDKSRWQEGNVFSCSVMHEALHNHYTQKSLSLSLGKGGGGSGGGGSDVQLQESGGGLVQAGGSLKLSCAASGGSLSRYDMGWFRQAPGKEREFVARISWSGDTKYYADAVEGRFAISRDNAQNTVYLQMNSLKPEDTAVYYCAVALYGNRGYYDVNTYSYWGQGTRVTVS chain 2: GPPCPPCPAPEFLGGPSVFLFPPKPKDTLMISRTPEVTCVVVDVSQEDPEVQFNWYVDGVEVHNAKTKPREEQFNSTYRVVSVLTVLHQDWLNGKEYKCKVSNKGLPSSIEKTISKAKGQPREPQVCTLPPSQEEMTKNQVSLSCAVKGFYPSDIAVEWESNGQPENNYKTTPPVLDSDGSFFLVSRLTVDKSRWQEGNVFSCSVMHEALHNHYTQKSLSLSLGKGGGGSGGGGSEVQLLESGGGLVQPGGSLRLSCAASGFTFGNYDMAWVRQAPGKRPEWVSSIDTGGDITHYADSVKGRFTISRDNAKNTLYLQMNSLRPEDTAVYWCATDEEYALGPNEFDYYGQGTLVTVSS,35,–
CIgG4F2A1(G4S)1 (Fc fusion) chain 1: GPPCPPCPAPEFLGGPSVFLFPPKPKDTLMISRTPEVTCVVVDVSQEDPEVQFNWYVDGVEVHNAKTKPREEQFNSTYRVVSVLTVLHQDWLNGKEYKCKVSNKGLPSSIEKTISKAKGQPREPQVYTLPPCQEEMTKNQVSLWCLVKGFYPSDIAVEWESNGQPENNYKTTPPVLDSDGSFFLYSRLTVDKSRWQEGNVFSCSVMHEALHNHYTQKSLSLSLGKGGGGSDVQLQESGGGLVQAGGSLKLSCAASGGSLSRYDMGWFRQAPGKEREFVARISWSGDTKYYADAVEGRFAISRDNAQNTVYLQMNSLKPEDTAVYYCAVALYGNRGYYDVNTYSYWGQGTRVTVS chain 2: GPPCPPCPAPEFLGGPSVFLFPPKPKDTLMISRTPEVTCVVVDVSQEDPEVQFNWYVDGVEVHNAKTKPREEQFNSTYRVVSVLTVLHQDWLNGKEYKCKVSNKGLPSSIEKTISKAKGQPREPQVCTLPPSQEEMTKNQVSLSCAVKGFYPSDIAVEWESNGQPENNYKTTPPVLDSDGSFFLVSRLTVDKSRWQEGNVFSCSVMHEALHNHYTQKSLSLSLGKGGGGSEVQLLESGGGLVQPGGSLRLSCAASGFTFGNYDMAWVRQAPGKRPEWVSSIDTGGDITHYADSVKGRFTISRDNAKNTLYLQMNSLRPEDTAVYWCATDEEYALGPNEFDYYGQGTLVTVSS,20,–
CIgG4F3A1(G4S)1 (Fc fusion) chain 1: GPPCPPCPAPEFLGGPSVFLFPPKPKDTLMISRTPEVTCVVVDVSQEDPEVQFNWYVDGVEVHNAKTKPREEQFNSTYRVVSVLTVLHQDWLNGKEYKCKVSNKGLPSSIEKTISKAKGQPREPQVYTLPPCQEEMTKNQVSLWCLVKGFYPSDIAVEWESNGQPENNYKTTPPVLDSDGSFFLYSRLTVDKSRWQEGNVFSCSVMHEALHNHYTQKSLSLSLGKGGGGSDVQLQESGGGLVQAGGSLKLSCAASRGSLSRWDVAWFRQAPGKERSFVTRISWSGTTSYYADAVKGRFAISRDNAKNTVYLQMNSLKPEDTAVYYCAVALYGNRGYYDVNAHSYWGQGTQVTVS chain 2: GPPCPPCPAPEFLGGPSVFLFPPKPKDTLMISRTPEVTCVVVDVSQEDPEVQFNWYVDGVEVHNAKTKPREEQFNSTYRVVSVLTVLHQDWLNGKEYKCKVSNKGLPSSIEKTISKAKGQPREPQVCTLPPSQEEMTKNQVSLSCAVKGFYPSDIAVEWESNGQPENNYKTTPPVLDSDGSFFLVSRLTVDKSRWQEGNVFSCSVMHEALHNHYTQKSLSLSLGKGGGGSEVQLLESGGGLVQPGGSLRLSCAASGFTFGNYDMAWVRQAPGKRPEWVSSIDTGGDITHYADSVKGRFTISRDNAKNTLYLQMNSLRPEDTAVYWCATDEEYALGPNEFDYYGQGTLVTVSS,50,1
